Sequences and labels used below:
B1: IMPA1 (parent)
chain: FIGEESVAAGEKSILTDNPTWIID
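Further: lentivirally expressed fusions sorted by FACS into six bins by GFP to DsRed ratio, PSI derived from sequencing read proportions per bin multiplied by bin number.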

Variants of B1 are the subject of the data set. Briefly: protein stability index of a GFP-peptide fusion (GPS, HEK-293T) (PSI 1-6); higher = more stable. As to conditions: c terminus: a fixed tail appended.
With FIGEESVAAGEKSILTFNPTWIID, the protein stability index worked out at 2.25.

Regarding FIGEESVAAGEKSILTMNPTWIID, the protein stability index was found to be 2.13.

FIGEESVAAGEKSILTANPTWIID: the protein stability index amounted to 1.54.

On to FIGEESVAAGEKSILTRNPTWIID, for which the protein stability index turned out to be 1.68.

FIGEESVAAGEKSILTINPTWIID: the protein stability index came to 2.7.

As for FIGEESVAAGEKSILTVNPTWIID, the protein stability index is 1.55.

Turning to FIGEESVAAGEKSILTPNPTWIID, the protein stability index turned out to be 2.

Turning to FIGEESVAAGEKSILTCNPTWIID, the protein stability index was 1.66.

In the case of FIGEESVAAGEKSILTLNPTWIID, the protein stability index is 2.06.

Turning to FIGEESVAAGEKSILTYNPTWIID, the protein stability index is 1.48.

As to FIGEESVAAGEKSILTKNPTWIID, the protein stability index worked out at 1.46.

Consider FIGEESVAAGEKSILTSNPTWIID, for which the protein stability index was 1.71.

Regarding FIGEESVAAGEKSILTNNPTWIID, the protein stability index amounted to 1.85.

On to FIGEESVAAGEKSILTGNPTWIID, for which the protein stability index is 2.08.

As for FIGEESVAAGEKSILTTNPTWIID, the protein stability index came out at 1.63.

For the variant FIGEESVAAGEKSILTHNPTWIID, the protein stability index was determined as 1.93.

On to FIGEESVAAGEKSILTQNPTWIID, for which the protein stability index was determined as 1.78.

For FIGEESVAAGEKSILTENPTWIID, the protein stability index worked out at 2.6.

Turning to FIGEESVAAGEKSILTWNPTWIID, the protein stability index amounted to 2.23.

Turning to FIGEESVAAGEKSIPTDNPTWIID, the protein stability index amounted to 2.57.

As for FIGEESVAAGEKSIKTDNPTWIID, the protein stability index amounted to 2.47.

FIGEESVAAGEKSIITDNPTWIID: the protein stability index worked out at 1.98.

Turning to FIGEESVAAGEKSIWTDNPTWIID, the protein stability index stood at 2.48.

Take FIGEESVAAGEKSIMTDNPTWIID: the protein stability index came to 2.15.

On to FIGEESVAAGEKSITTDNPTWIID, for which the protein stability index amounted to 2.33.

As for FIGEESVAAGEKSIYTDNPTWIID, the protein stability index is 2.05.

As for FIGEESVAAGEKSISTDNPTWIID, the protein stability index came to 2.33.

Take FIGEESVAAGEKSINTDNPTWIID: the protein stability index turned out to be 2.78.

FIGEESVAAGEKSIVTDNPTWIID: the protein stability index came to 2.52.

FIGEESVAAGEKSIRTDNPTWIID: the protein stability index amounted to 2.17.

For FIGEESVAAGEKSIQTDNPTWIID, the protein stability index was determined as 2.28.

Turning to FIGEESVAAGEKSILTDNATWIID, the protein stability index was found to be 2.41.

For the variant FIGEESVAAGEKSILTDNNTWIID, the protein stability index is 2.89.

Regarding FIGEESVAAGEKSILTDNHTWIID, the protein stability index was found to be 3.02.

Consider FIGEESVAAGEKSILTDNVTWIID, for which the protein stability index was found to be 2.39.

Consider FIGEESVAAGEKSILTDNRTWIID, for which the protein stability index was 1.96.

Regarding FIGEESVAAGEKSILTDNDTWIID, the protein stability index is 3.09.

Turning to FIGEESVAAGEKSILTDNYTWIID, the protein stability index was determined as 2.18.

On to FIGEESVAAGEKSILTDNSTWIID, for which the protein stability index stood at 2.38.

Consider FIGEESVAAGEKSILTDNGTWIID, for which the protein stability index came out at 3.13.

As for FIGEESVAAGEKSILTDNLTWIID, the protein stability index was found to be 1.97.

As to FIGEESVAAGEKSILTDNMTWIID, the protein stability index stood at 2.27.

For the variant FIGEESVAAGEKSILTDNWTWIID, the protein stability index was 1.96.

With FIGEESVAAGEKSILTDNITWIID, the protein stability index is 2.32.

Turning to FIGEESVAAGEKSILTDNKTWIID, the protein stability index was determined as 2.2.

Take FIGEESVAAGEKSILTDNETWIID: the protein stability index amounted to 3.51.

Take FIGEESVAAGEKSILTDNQTWIID: the protein stability index came to 2.92.

FIGEESVAAGEKSILTDNFTWIID: the protein stability index is 2.35.

Take FIGEESVAAGEKSILTDNTTWIID: the protein stability index turned out to be 2.83.

Take FIGEESVAAGEKSILTDNCTWIID: the protein stability index was 1.76.

With FIGEESVAAGEKSILTDNPCWIID, the protein stability index came out at 2.2.

Take FIGEESVAAGEKSILTDNPEWIID: the protein stability index turned out to be 3.67.

FIGEESVAAGEKSILTDNPDWIID: the protein stability index came out at 3.32.

In the case of FIGEESVAAGEKSILTDNPFWIID, the protein stability index is 2.29.

As for FIGEESVAAGEKSILTDNPAWIID, the protein stability index was determined as 2.43.

Take FIGEESVAAGEKSILTDNPGWIID: the protein stability index stood at 2.71.

Regarding FIGEESVAAGEKSILNDNPTWIID, the protein stability index amounted to 2.89.

FIGEESVAAGEKSILADNPTWIID: the protein stability index was 2.35.

As for FIGEESVAAGEKSILGDNPTWIID, the protein stability index was determined as 2.11.

Consider FIGEESVAAGEKSILKDNPTWIID, for which the protein stability index worked out at 2.73.

With FIGEESVAAGEKSILPDNPTWIID, the protein stability index came to 1.26.

In the case of FIGEESVAAGEKSILIDNPTWIID, the protein stability index is 1.41.

Regarding FIGEESVAAGEKSILWDNPTWIID, the protein stability index is 1.72.

With FIGEESVAAGEKSILDDNPTWIID, the protein stability index was determined as 3.17.

For FIGEESVAAGEKSILQDNPTWIID, the protein stability index was determined as 2.19.

In the case of FIGEESVAAGEKSILYDNPTWIID, the protein stability index worked out at 1.64.

As for FIGEESVAAGEKSILRDNPTWIID, the protein stability index came out at 2.37.

Take FIGEESVAAGEKSILVDNPTWIID: the protein stability index is 2.21.

In the case of FIGEESVAAGEKSILFDNPTWIID, the protein stability index stood at 1.66.

Consider FIGEESVAAGEKSILCDNPTWIID, for which the protein stability index came to 3.16.

With FIGEESVAAGEKSILLDNPTWIID, the protein stability index came to 1.83.

Regarding FIGEESVAAGEKSILSDNPTWIID, the protein stability index was 1.94.

For FIGEESVAAGEKSILHDNPTWIID, the protein stability index was 2.38.

Consider FIGEESVAAGEKSILEDNPTWIID, for which the protein stability index stood at 2.64.

FIGEESVAAGEKSILMDNPTWIID: the protein stability index was found to be 2.38.

With FIGEESVAAGEKSILTDTPTWIID, the protein stability index is 2.84.

As to FIGEESVAAGEKSILTDSPTWIID, the protein stability index is 3.05.

On to FIGEESVAAGEKSILTDEPTWIID, for which the protein stability index was found to be 3.48.

Take FIGEESVAAGEKSILTDCPTWIID: the protein stability index came to 2.64.

In the case of FIGEESVAAGEKSILTDWPTWIID, the protein stability index was 2.1.

In the case of FIGEESVAAGEKSILTDAPTWIID, the protein stability index stood at 3.01.

With FIGEESVAAGEKSILTDGPTWIID, the protein stability index stood at 2.71.

FIGEESVAAGEKSILTDDPTWIID: the protein stability index stood at 3.68.

Turning to FIGEESVAAGEKSILTDKPTWIID, the protein stability index came to 2.73.

On to FIGEESVAAGEKSILTDMPTWIID, for which the protein stability index came out at 2.6.

For FIGEESVAAGEKSILTDYPTWIID, the protein stability index amounted to 2.62.

In the case of FIGEESVAAGEKSILTDVPTWIID, the protein stability index came to 2.75.

As to FIGEESVAAGEKSILTDLPTWIID, the protein stability index came to 2.88.

As to FIGEESVAAGEKSILTDPPTWIID, the protein stability index turned out to be 3.14.

For FIGEESVAAGEKSILTDIPTWIID, the protein stability index turned out to be 2.71.

As to FIGEESVAAGEKSILTDRPTWIID, the protein stability index came to 2.31.

Turning to FIGEESVAAGEKSILTDFPTWIID, the protein stability index worked out at 2.46.

Regarding FIGEESVAAGEKSILTDHPTWIID, the protein stability index is 2.95.

On to FIGEESVAAGEKSILTDQPTWIID, for which the protein stability index worked out at 2.86.

Values taken from the supplement of paper PMC10567573.
